For two sequences, activity results are on record in patent US20110251266.

For this series, the target named is beta-NGF (nerve growth factor) (Homo sapiens) (UniProt P01138). As to the kind of experiment: cell_activity. To be noted: as SEQ30(6); 100 nM aptamer; parent 92.7%.
Chain of beta-NGF (nerve growth factor) (Homo sapiens) (P01138 122-241): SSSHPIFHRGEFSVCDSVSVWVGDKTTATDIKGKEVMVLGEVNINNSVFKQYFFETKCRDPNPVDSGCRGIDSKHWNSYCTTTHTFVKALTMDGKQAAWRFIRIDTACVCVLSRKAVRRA

Take “GGGAUAAAAAUAGAGUUUGAUAAACACCUGUAUUAAAACCC [SEQ30(6) G23A]”: the activity was found to be 91.2 % inhibition.

On to “GGGAUAAAAAUAGAGUUUGAUAAACACCUGUAUUAAAACCC [SEQ30(6) G20A]”, for which the activity was 96.1 % inhibition.
